Data on one substance can be found in article PMC3274534.

In the test the target is recombinant human adenovirus type 5 (E1 region replaced by lacZ cDNA), whole virus particles (human adenovirus type 5) (UniProt P04133).

Consider “human coagulation factor X (zymogen) (natural protein)”, for which the binding of the virus-hFX complex to heparan sulfate-coated plates (attached particles by real-time PCR), enhancement over virus alone; hFX at 0.008 and 0.05 mg/ml was determined as 7.5 times.
